B1: Fab 2F22 (Fab, V domains shown)
VH: QVQLKQSGPGLVQPSQSLSITCTVSGFSLTNYGVHWVRQSPGKGLEWLAVIWRGGSIDYNAAFMSRLSITKDNSKSQVFFKMNSLQADDTAIYYCAKNSHGNYVGYAMDYWGQGTSVTVSS
VL: GIVMTQSQKFMSTTVGDRVSITCKASQSVGPAVAWYQQKPGQSPKLLIYSASNRYTGVPDRFTGSGSGADFTLTISNLHSEDLADYFCQQYTSYPTFGGGTKLEIKR
notes: KPI-1 specific; HC truncated after the hinge cysteine; also called Fab fragment 2F22; extended Fab 2F22 (Fab for chemical coupling)
B2: Fab 0095-Fab 0089 conjugate 9005 (bispecific antibody)
heavy 1: EVQLVESGGGLVKPGGSLRLSCAASGFTFSNYAMSWVRQAPGKGLEWVSTISRSGSYSYYADSVKGRFTISRDNAKNSLYLQMNSLRAEDTAVYYCARLGGYDEGDAMDSWGQGTTVTVSSASTKGPSVFPLAPCSRSTSESTAALGCLVKDYFPEPVTVSWNSGALTSGVHTFPAVLQSSGLYSLSSVVTVPSSSLGTKTYTCNVDHKPSNTKVDKRVESKYGPPC
light 1: DIVMTQTPLSLSVTPGQPASISCKSSQSLLESDGKTYLNWLLQRPGESPKLLIYLVSILDSGVPDRFSGSGSGTDFTLKISRVEAEDVGVYYCLQATHFPQTFGGGTKVEIKRTVAAPSVFIFPPSDEQLKSGTASVVCLLNNFYPREAKVQWKVDNALQSGNSQESVTEQDSKDSTYSLSSTLTLSKADYEKHKVYACEVTHQGLSSPVTKSFNRGEC
heavy 2: QVQLQQSGAELVKPGASVKLSCKASGYTFISYYMYWVKQRPGQGLEWIGEINPSNGDTNLNEKFKSKATLTVDKSSSTVYMQLSSLTSEDSAVYYCTRWDRFDGFVYWGQGTLVTVSAASTKGPSVFPLAPCSRSTSESTAALGCLVKDYFPEPVTVSWNSGALTSGVHTFPAVLQSSGLYSLSSVVTVPSSSLGTKTYTCNVDHKPSNTKVDKRVESKYGPPC
light 2: ETTVTQSPASLSMAIGGKVTIRCIISTNIDDDINWYQQKPGEPPKLLISEGNTLRPGVPSRFSSSGYGTDFVFTIENMLSEDVADYYCLQSDDLPYTFGGGTKLEIKRTVAAPSVFIFPPSDEQLKSGTASVVCLLNNFYPREAKVQWKVDNALQSGNSQESVTEQDSKDSTYSLSSTLTLSKADYEKHKVYACEVTHQGLSSPVTKSFNRGEC
modifications: C-terminal cysteine coupled through the bis-maleimide linker to the Fab 0095 heavy chain; C-terminal cysteine coupled through 1,16-N,N'-bis(maleimido)-4,13-diaza-7,10-dioxa-3,14-dioxohexadecane to the C-terminal cysteine of the Fab 0089 heavy chain
notes: KPI-2/KPI-3; also called Fab 0095-Fab 0089 (9005)
B3: Fab 0313-Fab 0089 conjugate 9031 (bispecific antibody)
heavy 1: EVQLVESGGGLVKPGGSLRLSCAASGFTFSNYAMSWVRQAPGKGLEWVSTISRSGSYSYYADSVKGRFTISRDNAKNSLYLQMNSLRAEDTAVYYCARLGGYDEGDAMDSWGQGTTVTVSSASTKGPSVFPLAPCSRSTSESTAALGCLVKDYFPEPVTVSWNSGALTSGVHTFPAVLQSSGLYSLSSVVTVPSSSLGTKTYTCNVDHKPSNTKVDKRVESKYGPPC
light 1: DIVMTQTPLSLSVTPGQPASISCKSSQSLLESDGKTYLNWYLQKPGQSPQLLIYLVSILDSGVPDRFSGSGSGTDFTLKISRVEAEDVGVYYCLQATHFPQTFGGGTKVEIKRTVAAPSVFIFPPSDEQLKSGTASVVCLLNNFYPREAKVQWKVDNALQSGNSQESVTEQDSKDSTYSLSSTLTLSKADYEKHKVYACEVTHQGLSSPVTKSFNRGEC
heavy 2: QVQLQQSGAELVKPGASVKLSCKASGYTFISYYMYWVKQRPGQGLEWIGEINPSNGDTNLNEKFKSKATLTVDKSSSTVYMQLSSLTSEDSAVYYCTRWDRFDGFVYWGQGTLVTVSAASTKGPSVFPLAPCSRSTSESTAALGCLVKDYFPEPVTVSWNSGALTSGVHTFPAVLQSSGLYSLSSVVTVPSSSLGTKTYTCNVDHKPSNTKVDKRVESKYGPPC
light 2: ETTVTQSPASLSMAIGGKVTIRCIISTNIDDDINWYQQKPGEPPKLLISEGNTLRPGVPSRFSSSGYGTDFVFTIENMLSEDVADYYCLQSDDLPYTFGGGTKLEIKRTVAAPSVFIFPPSDEQLKSGTASVVCLLNNFYPREAKVQWKVDNALQSGNSQESVTEQDSKDSTYSLSSTLTLSKADYEKHKVYACEVTHQGLSSPVTKSFNRGEC
modifications: C-terminal cysteine coupled through the bis(acetyl)ethylene diamine linker to the Fab 0313 heavy chain; C-terminal cysteine coupled through bis(bromoacetyl)ethylene diamine to the C-terminal cysteine of the Fab 0089 heavy chain
notes: KPI-2/KPI-3; also called Fab 0313-FAb 0089 (9031)

Tests used:
[1] = biological target: T1, human TFPI alpha (full-length TFPIα) (human, UniProt P10646 29-304); assay: SPR (Biacore T200), Fab captured on Human Fab Binder, TFPIα in solution, 1:1 fit
T1 construct: Analyte in SPR and added to plasma (2 or 20 nM) in thrombin generation assays; also called human TFPIα
From the text: (§1) Binding interaction analysis was obtained by Surface Plasmon Resonance in a Biacore T200 instrument. Human Fab Binder (Human Fab Capture Kit, GE Healthcare) was immobilized to a series S CM4 sensor chip (GE Healthcare) in flow-cells 1-4 at 10000 response units (RU) using the amine coupling protocol available within the Biacore T-200 control software (GE Healthcare) and the reagents provided with the Amine Coupling Kit (GE Healthcare).The relevant Fab fragment or Fab-Fab conjugate was captured in flow-cell 2, 3 or 4 at a fixed concentration. Different concentrations of TFPI were tested by diluting TFPI in the running buffer (10 mM Hepes, pH 7.4, 300 mM NaCl, 5 mM CaCl₂, 0.05% Surfactant P20, 1 mg/ml BSA). Each sample was assayed using 300 seconds of contact time followed by 600 seconds of dissociation time at 50 μl/min flow rate. A buffer blank was also assayed. The sensor surface was regenerated with 10 mM Glycine pH 2.1 with two cycles each of 30 seconds at 50 μl/min flow rate.
(§2) Biacore T200 Evaluation software was used to analyse the data. Determination of binding constants (kₒₙ, koff, KD) was obtained assuming a 1:1 interaction of TFPI and the Fab variant or Fab-Fab conjugate of interest.

[2] = biological target: T1, human TFPI alpha (full-length TFPIα); assay: SPR (Biacore T200), Fab-Fab conjugate captured on Human Fab Binder, TFPIα in solution, 1:1 fit
From the text: as §1, §2

Binder | Kd [1] [nM] | Kd [2] [nM] | koff [2] [s⁻¹] | kon [2] [M⁻¹ s⁻¹]
B1 | 1.7 |  |  | 
B2 |  | 0.038 | 0.00023 | 6.1e+06
B3 |  | 0.17 | 0.0067 | 4e+07
